Reference: the supplement of paper PMC9170038

Tested on: MS2 coat protein
Experiment: apparent KD of MS2 coat protein; designed switch direction (-1 OFF switch, 1 ON switch): -1; higher = weaker reporter binding
In short: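 Apparent KD, taken as the median over clusters for each design, was obtained by curve-fitting normalised cluster fluorescence. Designed RNA switches had been transcribed on Illumina chips by stalled E. coli RNA polymerase and titrated with SNAP-549-labelled MS2 coat protein, doubling from 0.7 or 1.5 nM to 3 µM.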

[1] = input ligand: microRNA oligo, concentration not stated
[2] = Eterna round: R95, input ligand: FMN 200 uM
[3] = Eterna round: R95, input ligand: microRNA oligo, concentration not stated
[4] = Eterna round: R95, input ligand: none

| Sequence | apparent KD of MS2 coat protein (input ligand: FMN 200 uM) [nM] | apparent KD of MS2 coat protein (input ligand: none) [nM] | apparent KD of MS2 coat protein [1] [nM] | apparent KD of MS2 coat protein [2] [nM] | apparent KD of MS2 coat protein [3] [nM] | apparent KD of MS2 coat protein [4] [nM] |
| --- | --- | --- | --- | --- | --- | --- |
| UAACUUUUUGUAAGGAUAUCGGUCCCAAGGGACAACGAGAAGGUACAUGAGGAUCACCCAUGUGAAAUAAGAAU [Mod of Zala 20 - Jieux - Brourd's Mod of Exclusion 4] (Eterna round: R97, puzzle: Brourd's mod of Exclusion 4) | 154 | 22.7 |  |  |  |  |
| UAAGCAAGCGAAAGAUCCCACAUGAGGAUCACCCAUGUGCUCGUCUUAUAAGGUACUGUGACGAAAGUCACGGUACC [Sensor 3, v1 - 91 v22] (Eterna round: R97, puzzle: Sensor, turn-off variant 1) | 140 | 128 |  |  |  |  |
| UAAGGUGGUACCAUGAACAUGAGGAUCACCCAUGUACCUUAGAAGGAUAUCGCGACGUGUACGCGCGAGAAGGUCUACAACGUA [Eternabot solution 35] (Eterna round: R96, puzzle: Exclusion NG 3) | 162 | 77.5 | 70.1 |  |  |  |
| UAAUAACAAGCAGGAUCCUACAUGAGGAUCACCCAUGUGCUCGUCUUAUAAAGUACUAUCACGAAAGUGAUAGUACA [Mat - Sensor v3 - turn-off var 1 - Eli Mod - D70] (puzzle: Sensor v3, turn-off variant 1) |  |  |  | 272 | 148 | 315 |
| UAAUAAUAGCAAGGAUAUAGUUAUUAUAAUAUACUAGAAGGUGCACAUGAGGAUCACCCAUGUUUUAUAAUUUGUAAUUUAAAU [3rd something] (Eterna round: R96, puzzle: Exclusion NG 1) |  |  | 20.9 |  |  |  |
| UAAUACAAGCAAAGAUCUUACAUGAGGAUCACCCAUGUGCUCGUCUUAUAAAGUACUAUCACGAAAGUGAUAGUACA [Mat - Sensor v3 - turn-off var 1 - Eli Mod - D93] (puzzle: Sensor v3, turn-off variant 1) |  |  |  | 20.4 | 181 | 31.9 |
| UAAUACAAGUAAAGAUCCUACAUGAGGAUCACCCAUGUGCUCGUCUUGUAAAGUACUAUCACGAAAGUGAUAGUACA [Mat - Sensor v3 - turn-off var 1 - Eli Mod - D85] (puzzle: Sensor v3, turn-off variant 1) |  |  |  | 41 | 196 | 53.1 |
| UAAUACAUCUAUGGGAGUAACAUGAGGAUCACCCAUGUAUGUCUUGUUUUUUGUUCGUCAAAGACUUUCUGAUCAGU [JR_SV3TOV1_Sub030] (puzzle: Sensor v3, turn-off variant 1) |  |  |  | 76.7 | 191 | 83.2 |
| UAAUUAAAUGUAGGAUAUCUGCACGUUUAGUGCAGAGAAGGACAUGAGGAUCACCCAUGUAGAUCAAAUUAAAUUAAUUUAAUU [ENG1/5-D2] (Eterna round: R96, puzzle: Exclusion NG 1) | 99.6 | 33.8 | 25.7 |  |  |  |
| UAAUUUAGUGUGAGGAUAUGCUGGUCGAUAGAUCAGCAGAAGGCACAUGAGGAUCACCCAUGUAAUAUAUUAAA [Mat - Exclusion 4 - JL Mod - D35] (puzzle: Brourd's mod of Exclusion 4) |  |  |  | 218 | 62.4 | 60.2 |
| UACAAGCUUUUAAGAUCCUACAUGAGGAUCACCCAUGUGCUCGUCUUAUAACGUACUGUGACGAAAGUCACGGUACG [JL TOV1 3.21] (Eterna round: R97, puzzle: Sensor, turn-off variant 1) | 92.9 | 103 |  |  |  |  |
| UACAUGAGGAUCACCCAUGUUUUGUCGUGUAUGGUACCCGUCUAGGAUAUCGUGUUAUUGGACCGCGAGAAGGAGAGUAUCAAU [Excl-NG3-LRO03] (Eterna round: R96, puzzle: Exclusion NG 3) | 26.4 | 33.5 | 20.2 |  |  |  |
| UACAUGAGGAUCACCCAUGUUUUGUCGUGUAUGGUACCCGUUUAGGAUAUCGUGUUAUUGGACCGCGAGAAGGAGAGUAUCAAU [Excl-NG3-LRO04] (Eterna round: R96, puzzle: Exclusion NG 3) | 26.5 | 29.4 | 22.8 |  |  |  |
| UACAUGAGGAUCACCCAUGUUUUGUCGUGUAUGGUAUUUAUCUAGGAUAUCAAUCUAUUAAUUUAUGAGAAGGAGAAUAUUAAU [JMF's solution 52] (Eterna round: R96, puzzle: Exclusion NG 3) |  |  | 28.8 |  |  |  |
| UACAUGAGGAUCACCCAUGUUUUGUCGUGUAUGGUAUUUAUCUAGGAUAUCAAUUUAGUAAUUUAUGAGAAGGAGAAUAUUAAU [JMF's solution 73] (Eterna round: R96, puzzle: Exclusion NG 3) | 37.5 | 40.8 | 31.4 |  |  |  |
| UACAUGAGGAUCACCCAUGUUUUGUCGUGUAUGGUAUUUAUCUAGGAUAUCAAUUUAUUUAGUUAUGAGAAGGAGAAUAUUAAU [JMF's solution 22] (Eterna round: R96, puzzle: Exclusion NG 3) | 46.8 | 37.9 | 27.7 |  |  |  |
| UACAUGAGGAUCACCCAUGUUUUGUCGUGUAUGGUAUUUAUCUAGGAUAUCAUUAUAUUUAGUUAUGAGAAGGAGAAUAUUAAU [JMF's solution 82] (Eterna round: R96, puzzle: Exclusion NG 3) | 28.1 | 44.6 | 23.6 |  |  |  |
| UACCGGCGGACCGAAGCUUUUUGCUUGUUUUAUACUACAACAUGAGGAUCACCCAUGUGGUGGUGGUCCGUUGUAGU [JL ViennaUCT Bitein mod 1] (puzzle: Sensor v3, turn-off variant 2) |  |  |  | 63.9 | 16.7 | 58.6 |
| UACCUGAGGCAAAGCUUUAGGUAAACAUGAGGAUCACCCAUGUAGGAUAUGGUAGGCAAAGCUUACCAGAAGGACAUGAUAAUU [Mat - Exclusion NG 3 - Mod of JL - D35] (Eterna round: R96, puzzle: Exclusion NG 3) | 544 | 80.4 | 79.2 |  |  |  |
| UACGGGUCAGGAUAUGCGAGAGAGUGGGAAAUAGGAAGGUAGCAGAAGGGACAUGAGGAUCACCCAUGUGAGGC [JR_Exclu4_Sub099] (puzzle: Exclusion 4) |  |  |  |  | 23.8 |  |
| UAGAAACAUGAGGAUCACCCAUGUGAGGAUAUGGCCCGCCCGGCGUGAGCUGGUUUUGUCAGAAGGCGCAUAGG [salish99_ex1_r4_020] (Eterna round: R97, puzzle: Exclusion 1) | 115 | 71.1 |  |  |  |  |
| UAGAAUCGAGGAUAUACAUGAGGAUCACCCAUGUGUGGCCACACGGUGUGGUCGUCAGGUAGAAGGCGAUUACA [Exclusion 3 - Mod of Jieux's Gilly Gone Silly 23 v.3] (puzzle: Exclusion 3) |  |  |  | 19.9 | 22.8 | 53.2 |
| UAGAUACAUGAGGAUCACCCAUGUGAGGAUAUGAGAAUUAGUUUAAAUGAAUUAAUUUUCAGAAGGCACGGAGG [JR_Ex1_Sub053] (Eterna round: R97, puzzle: Exclusion 1) | 180 | 123 |  |  |  |  |
